In test [1] the target is T1, human calcitonin receptor (human, UniProt P30988 25-474).
T1 construct: whole, on cells; Used as membranes prepared from the transfected cells (Assay VII); also called hCTR; hCT
T1 sequence (looked up): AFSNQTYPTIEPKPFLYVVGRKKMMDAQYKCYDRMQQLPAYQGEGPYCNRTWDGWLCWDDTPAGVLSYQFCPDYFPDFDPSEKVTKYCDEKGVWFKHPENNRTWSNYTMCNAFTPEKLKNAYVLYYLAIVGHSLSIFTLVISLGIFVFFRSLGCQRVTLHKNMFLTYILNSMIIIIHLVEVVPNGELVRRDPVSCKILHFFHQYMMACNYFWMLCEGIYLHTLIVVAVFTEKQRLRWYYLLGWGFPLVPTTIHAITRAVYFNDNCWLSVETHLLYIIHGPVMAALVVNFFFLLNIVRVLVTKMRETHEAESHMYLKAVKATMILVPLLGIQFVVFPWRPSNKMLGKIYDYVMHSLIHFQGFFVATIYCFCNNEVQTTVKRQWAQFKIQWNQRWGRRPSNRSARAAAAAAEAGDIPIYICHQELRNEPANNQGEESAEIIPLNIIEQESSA
Briefly: ratio IC50 human calcitonin receptor / IC50 human amylin receptor (Assays VII and V). The method in brief:
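Competition binding by SPA with cell membranes (35 ng/μL) and SPA beads in 50 mM Hepes pH 7.4 with 1 mM CaCl2, 5 mM MgCl2, 0.1% OA and 0.02% Tween20. Incubated 120 min at 25 °C with shaking, then counted.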

Test [2] deals with T2, rat amylin receptor (rat calcitonin receptor + rat RAMP 3) (rat, UniProt P32214 25-516; Q9JJ73 23-147).
T2 construct: whole, on cells; Used as membranes prepared from the transfected cells; also called rAmylin-R; rat amylin 3(a) receptor
T2 sequence (looked up) 1: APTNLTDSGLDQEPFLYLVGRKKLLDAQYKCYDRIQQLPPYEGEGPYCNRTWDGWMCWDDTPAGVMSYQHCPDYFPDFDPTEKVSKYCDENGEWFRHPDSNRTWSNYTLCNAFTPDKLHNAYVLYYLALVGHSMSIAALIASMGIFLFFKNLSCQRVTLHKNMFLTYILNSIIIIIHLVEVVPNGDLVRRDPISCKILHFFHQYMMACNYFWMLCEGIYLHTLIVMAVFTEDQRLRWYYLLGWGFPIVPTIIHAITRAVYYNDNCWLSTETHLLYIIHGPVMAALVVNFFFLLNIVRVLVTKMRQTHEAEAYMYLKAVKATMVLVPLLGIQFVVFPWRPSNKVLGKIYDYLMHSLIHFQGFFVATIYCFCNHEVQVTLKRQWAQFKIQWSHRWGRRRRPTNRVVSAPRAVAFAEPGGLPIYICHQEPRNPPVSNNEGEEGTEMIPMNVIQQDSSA
T2 sequence (looked up) 2: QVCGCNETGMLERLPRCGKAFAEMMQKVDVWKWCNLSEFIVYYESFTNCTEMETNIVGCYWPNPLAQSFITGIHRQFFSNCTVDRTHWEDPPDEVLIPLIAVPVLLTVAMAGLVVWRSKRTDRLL
Briefly: SPA competition with 125I-rat amylin, membranes of BHK cells with rat calcitonin receptor + rat RAMP3 (Assay VI).

Test [3] addresses T3, rat calcitonin receptor (rat, UniProt P32214 25-516).
T3 construct: whole, on cells; Used as membranes prepared from the transfected cells; also called rCTR; rat calcitonin (a) receptor
T3 sequence (looked up): T2 sequence (looked up) 1
In words: SPA competition with 125I-calcitonin, membranes of BHK cells with rat calcitonin receptor (Assay VIII).

For test [4], the target named is T3, rat calcitonin receptor. In words: ratio IC50 rat calcitonin receptor / IC50 rat amylin receptor (Assays VIII and VI).

Numbered stars: 1 amine (or outer) side, 2 acyl side, 3 side chain; on linkers, the order of the positions; unused ones are H or OH. Bridge positions count the residues as written; N and C are the ends. * marks the point of attachment. C20 diacid = O=C(O)CCCCCCCCCCCCCCCCCCC(=O)*; γGlu = O=C(O)[C@H](CCC(=O)[*:2])N[*:1]

The source of these data is patent publication US20140087995A1 (published 2014).

What is called IC50 is the concentration needed to halve the response being measured.

B1: N^α1-[(4S)-4-carboxy-4-(19-carboxynonadecanoylamino)butanoyl]-[Glu14,Arg17,Pro21,Pro27,Pro31]-h-amylin (peptide)
peptide: {C20 diacid-γGlu}-KCNTATCATQRLAEFLRHSSPNFGAIPSSTPVGSNTY-NH2
modifications: disulfide 2-7
SMILES: CC[C@H](C)[C@H](NC(=O)[C@H](C)NC(=O)CNC(=O)[C@H](Cc1ccccc1)NC(=O)[C@H](CC(N)=O)NC(=O)[C@@H]1CCCN1C(=O)[C@H](CO)NC(=O)[C@H](CO)NC(=O)[C@H](Cc1c[nH]cn1)NC(=O)[C@H](CCCNC(=N)N)NC(=O)[C@H](CC(C)C)NC(=O)[C@H](Cc1ccccc1)NC(=O)[C@H](CCC(=O)O)NC(=O)[C@H](C)NC(=O)[C@H](CC(C)C)NC(=O)[C@H](CCCNC(=N)N)NC(=O)[C@H](CCC(N)=O)NC(=O)[C@@H](NC(=O)[C@H](C)NC(=O)[C@@H]1CSSC[C@H](NC(=O)[C@H](CCCCN)NC(=O)CC[C@H](NC(=O)CCCCCCCCCCCCCCCCCCC(=O)O)C(=O)O)C(=O)N[C@@H](CC(N)=O)C(=O)N[C@@H]([C@@H](C)O)C(=O)N[C@@H](C)C(=O)N[C@@H]([C@@H](C)O)C(=O)N1)[C@@H](C)O)C(=O)N1CCC[C@H]1C(=O)N[C@@H](CO)C(=O)N[C@@H](CO)C(=O)N[C@H](C(=O)N1CCC[C@H]1C(=O)N[C@H](C(=O)NCC(=O)N[C@@H](CO)C(=O)N[C@@H](CC(N)=O)C(=O)N[C@H](C(=O)N[C@@H](Cc1ccc(O)cc1)C(N)=O)[C@@H](C)O)C(C)C)[C@@H](C)O
notes: Derivative of human amylin; also called compound 31
For the molecule B1, the “Ratio hCT/hAmylin binding” value in test [1] is 16. The IC50 in test [2] was 0.619 nM; with rat calcitonin receptor [3], 26.5 nM. Also, the “Ratio rCT/rAmylin binding” value with rat calcitonin receptor [4] was 42.8.

B2: N^α1N^α1-[(4S)-4-carboxy-4-(19-carboxynonadecanoylamino)butanoyl]-[Glu14,Arg17,Pro21,Pro27,Glu35]-h-amylin (peptide)
peptide: {C20 diacid-γGlu}-KCNTATCATQRLAEFLRHSSPNFGAIPSSTNVGSETY-NH2
modifications: disulfide 2-7
SMILES: CC[C@H](C)[C@H](NC(=O)[C@H](C)NC(=O)CNC(=O)[C@H](Cc1ccccc1)NC(=O)[C@H](CC(N)=O)NC(=O)[C@@H]1CCCN1C(=O)[C@H](CO)NC(=O)[C@H](CO)NC(=O)[C@H](Cc1c[nH]cn1)NC(=O)[C@H](CCCNC(=N)N)NC(=O)[C@H](CC(C)C)NC(=O)[C@H](Cc1ccccc1)NC(=O)[C@H](CCC(=O)O)NC(=O)[C@H](C)NC(=O)[C@H](CC(C)C)NC(=O)[C@H](CCCNC(=N)N)NC(=O)[C@H](CCC(N)=O)NC(=O)[C@@H](NC(=O)[C@H](C)NC(=O)[C@@H]1CSSC[C@H](NC(=O)[C@H](CCCCN)NC(=O)CC[C@H](NC(=O)CCCCCCCCCCCCCCCCCCC(=O)O)C(=O)O)C(=O)N[C@@H](CC(N)=O)C(=O)N[C@@H]([C@@H](C)O)C(=O)N[C@@H](C)C(=O)N[C@@H]([C@@H](C)O)C(=O)N1)[C@@H](C)O)C(=O)N1CCC[C@H]1C(=O)N[C@@H](CO)C(=O)N[C@@H](CO)C(=O)N[C@H](C(=O)N[C@@H](CC(N)=O)C(=O)N[C@H](C(=O)NCC(=O)N[C@@H](CO)C(=O)N[C@@H](CCC(=O)O)C(=O)N[C@H](C(=O)N[C@@H](Cc1ccc(O)cc1)C(N)=O)[C@@H](C)O)C(C)C)[C@@H](C)O
notes: Derivative of human amylin; also called compound 22
Consider B2, for which, in test [1], the “Ratio hCT/hAmylin binding” value was 12.3. In addition, the IC50 in test [2] was 2.19 nM; in the test with rat calcitonin receptor [3], 62.5 nM. In addition, the “Ratio rCT/rAmylin binding” value in the test with rat calcitonin receptor [4] was 28.5.

B3: N^α1-[(4S)-4-carboxy-4-(19-carboxynonadecanoylamino)butanoyl]-[His14,Arg17,Pro21,Pro27,Glu35]-h-amylin (peptide)
peptide: {C20 diacid-γGlu}-KCNTATCATQRLAHFLRHSSPNFGAIPSSTNVGSETY-NH2
modifications: disulfide 2-7
SMILES: CC[C@H](C)[C@H](NC(=O)[C@H](C)NC(=O)CNC(=O)[C@H](Cc1ccccc1)NC(=O)[C@H](CC(N)=O)NC(=O)[C@@H]1CCCN1C(=O)[C@H](CO)NC(=O)[C@H](CO)NC(=O)[C@H](Cc1c[nH]cn1)NC(=O)[C@H](CCCNC(=N)N)NC(=O)[C@H](CC(C)C)NC(=O)[C@H](Cc1ccccc1)NC(=O)[C@H](Cc1c[nH]cn1)NC(=O)[C@H](C)NC(=O)[C@H](CC(C)C)NC(=O)[C@H](CCCNC(=N)N)NC(=O)[C@H](CCC(N)=O)NC(=O)[C@@H](NC(=O)[C@H](C)NC(=O)[C@@H]1CSSC[C@H](NC(=O)[C@H](CCCCN)NC(=O)CC[C@H](NC(=O)CCCCCCCCCCCCCCCCCCC(=O)O)C(=O)O)C(=O)N[C@@H](CC(N)=O)C(=O)N[C@@H]([C@@H](C)O)C(=O)N[C@@H](C)C(=O)N[C@@H]([C@@H](C)O)C(=O)N1)[C@@H](C)O)C(=O)N1CCC[C@H]1C(=O)N[C@@H](CO)C(=O)N[C@@H](CO)C(=O)N[C@H](C(=O)N[C@@H](CC(N)=O)C(=O)N[C@H](C(=O)NCC(=O)N[C@@H](CO)C(=O)N[C@@H](CCC(=O)O)C(=O)N[C@H](C(=O)N[C@@H](Cc1ccc(O)cc1)C(N)=O)[C@@H](C)O)C(C)C)[C@@H](C)O
notes: Derivative of human amylin; also called compound 30
Turning to B3, the “Ratio hCT/hAmylin binding” value in test [1] is 23.6. The IC50 in test [2] was determined as 3.14 nM; with rat calcitonin receptor [3] it was 114 nM. Further, the “Ratio rCT/rAmylin binding” value with rat calcitonin receptor [4] worked out at 36.1.

B4: N^α1-[(4S)-4-carboxy-4-(19-carboxynonadecanoylamino)butanoyl]-[Glu14,Arg17,Pro21,Pro27,Pro34]-h-amylin (peptide)
peptide: {C20 diacid-γGlu}-KCNTATCATQRLAEFLRHSSPNFGAIPSSTNVGPNTY-NH2
modifications: disulfide 2-7
SMILES: CC[C@H](C)[C@H](NC(=O)[C@H](C)NC(=O)CNC(=O)[C@H](Cc1ccccc1)NC(=O)[C@H](CC(N)=O)NC(=O)[C@@H]1CCCN1C(=O)[C@H](CO)NC(=O)[C@H](CO)NC(=O)[C@H](Cc1c[nH]cn1)NC(=O)[C@H](CCCNC(=N)N)NC(=O)[C@H](CC(C)C)NC(=O)[C@H](Cc1ccccc1)NC(=O)[C@H](CCC(=O)O)NC(=O)[C@H](C)NC(=O)[C@H](CC(C)C)NC(=O)[C@H](CCCNC(=N)N)NC(=O)[C@H](CCC(N)=O)NC(=O)[C@@H](NC(=O)[C@H](C)NC(=O)[C@@H]1CSSC[C@H](NC(=O)[C@H](CCCCN)NC(=O)CC[C@H](NC(=O)CCCCCCCCCCCCCCCCCCC(=O)O)C(=O)O)C(=O)N[C@@H](CC(N)=O)C(=O)N[C@@H]([C@@H](C)O)C(=O)N[C@@H](C)C(=O)N[C@@H]([C@@H](C)O)C(=O)N1)[C@@H](C)O)C(=O)N1CCC[C@H]1C(=O)N[C@@H](CO)C(=O)N[C@@H](CO)C(=O)N[C@H](C(=O)N[C@@H](CC(N)=O)C(=O)N[C@H](C(=O)NCC(=O)N1CCC[C@H]1C(=O)N[C@@H](CC(N)=O)C(=O)N[C@H](C(=O)N[C@@H](Cc1ccc(O)cc1)C(N)=O)[C@@H](C)O)C(C)C)[C@@H](C)O
notes: Derivative of human amylin; also called compound 32
Regarding B4, in test [1], the “Ratio hCT/hAmylin binding” value was found to be 10.9. For the same molecule, the IC50 in test [2] amounted to 0.176 nM; with rat calcitonin receptor [3] it was 5.98 nM. The “Ratio rCT/rAmylin binding” value in the test with rat calcitonin receptor [4] came to 34.

B5: N^α1-[(4S)-4-carboxy-4-(19-carboxynonadecanoylamino)butanoyl]-[Glu14,Arg17,Pro21,Pro28,Glu35]-h-amylin (peptide)
peptide: {C20 diacid-γGlu}-KCNTATCATQRLAEFLRHSSPNFGAILPSTNVGSETY-NH2
modifications: disulfide 2-7
SMILES: CC[C@H](C)[C@H](NC(=O)[C@H](C)NC(=O)CNC(=O)[C@H](Cc1ccccc1)NC(=O)[C@H](CC(N)=O)NC(=O)[C@@H]1CCCN1C(=O)[C@H](CO)NC(=O)[C@H](CO)NC(=O)[C@H](Cc1c[nH]cn1)NC(=O)[C@H](CCCNC(=N)N)NC(=O)[C@H](CC(C)C)NC(=O)[C@H](Cc1ccccc1)NC(=O)[C@H](CCC(=O)O)NC(=O)[C@H](C)NC(=O)[C@H](CC(C)C)NC(=O)[C@H](CCCNC(=N)N)NC(=O)[C@H](CCC(N)=O)NC(=O)[C@@H](NC(=O)[C@H](C)NC(=O)[C@@H]1CSSC[C@H](NC(=O)[C@H](CCCCN)NC(=O)CC[C@H](NC(=O)CCCCCCCCCCCCCCCCCCC(=O)O)C(=O)O)C(=O)N[C@@H](CC(N)=O)C(=O)N[C@@H]([C@@H](C)O)C(=O)N[C@@H](C)C(=O)N[C@@H]([C@@H](C)O)C(=O)N1)[C@@H](C)O)C(=O)N[C@@H](CC(C)C)C(=O)N1CCC[C@H]1C(=O)N[C@@H](CO)C(=O)N[C@H](C(=O)N[C@@H](CC(N)=O)C(=O)N[C@H](C(=O)NCC(=O)N[C@@H](CO)C(=O)N[C@@H](CCC(=O)O)C(=O)N[C@H](C(=O)N[C@@H](Cc1ccc(O)cc1)C(N)=O)[C@@H](C)O)C(C)C)[C@@H](C)O
notes: Derivative of human amylin; also called compound 33
With B5, in test [1], the “Ratio hCT/hAmylin binding” value was found to be 3.9. In addition, the IC50 was 2.29 nM in test [2] and 28.9 nM with rat calcitonin receptor [3]. Further, the “Ratio rCT/rAmylin binding” value with rat calcitonin receptor [4] came out at 12.6.
